Test results published in patent US20200397860A1, “SLIT AND BONE GROWTH MODULATION” (Cornell University, priority 2018, published 2020).
Entries after “also recorded” stand apart in the source; their conditions may differ.

Key:
[1] = test system: human mesenchymal stromal cells; assay: ALP activity assay after 6 days of osteogenic culture; assay type: cell-based; settings: different doses
Method: Primary calvarial osteoblasts were isolated from five-day-old mice by triple collagenase/dispase II digestion. Cells were cultured in α-MEM medium (Gibco) containing 10% FBS, 2 mM L-glutamine, 1% penicillin/streptomycin, 1% Hepes, and 1% nonessential amino acids and differentiated with ascorbic acid and β-glycerophosphate. Conditioned medium was collected from culture of primary osteoblasts and stocked at −80° C. hMSCs were cultured and differentiated into osteoblasts using a commercial kit (Cyagen). All cells were routinely tested to be mycoplasma negative.
For staining of extracellular matrix mineralization, cells were fixed with 10% neutral buffered formalin and stained with alizarin red. Mineralization activity was measured by colorimetric analysis. For alkaline phosphatase (ALP) activity, osteoblasts were fixed with 10% neutral formalin buffer and stained with the solution containing Fast Blue and Naphthol (Sigma-Aldrich). Alternatively, osteoblasts were incubated with 10-fold diluted Alamar Blue solution, washed, and incubated with a solution containing 6.5 mM Na2CO3, 18.5 mM NaHCO3, 2 mM MgCl2, and phosphatase substrate (Sigma-Aldrich). ALP activity was measured by a spectrophotometer (Thermo).

non-skeletal vasculature = settings: mouse, in vivo, iv
[2] = test system: bone marrow endothelial progenitor outgrowth cells (EPOCs); assay: Endothelial cell wound healing (migration) assay; assay type: cell-based, mouse
Method: Mouse bone marrow derived late-stage endothelial progenitor outgrowth cells (EPOCs) were obtained from BioChain (7030031) and cultured in growth medium (BioChain Z7030035) as described previously (Xie et al. 2014). Endothelial cell migration assay was set up in Trans well-24 well plates with 8-um pore filters. Briefly, 1×10^5 cells/well after 1-hour serum starvation were seeded in the upper chamber, then incubated with conditioned medium from osteoblasts and control in the lower chambers for a further 3 h. The cells in the upper surface of each filter were removed with cotton swabs. The cells that migrated into the lower surface were fixed with 4% PFA for 30 min and then stained with crystal violet. The cell numbers were quantified by counting a centered microscope field per each filter (5 wells for each condition). […] The width of the wound area was quantitatively evaluated using ImageJ (see website at rsb.info.uih.gov/ij/download.html). […] At 0, 24, 48 hours after seeding, cells were incubated with 10-fold diluted Alamar Blue solution (Thermo Fisher) and the supernatant was evaluated with a spectrophotometer (Thermo) (5 wells for each condition). […] Alter 5 hours incubation at 37° C., the number of tube branches each well was observed and quantified by counting four random fields per well with microscopy (5 wells for each condition).

[3] = test system: bone marrow endothelial progenitor outgrowth cells (EPOCs); assay: Matrigel tube formation assay; assay type: cell-based, mouse; settings: for tube formation (tube branch numbers): EPOCs on Matrigel
Method: Mouse bone marrow derived late-stage endothelial progenitor outgrowth cells (EPOCs) were obtained from BioChain (7030031) and cultured in growth medium (BioChain Z7030035) as described previously (Xie et al. 2014). Endothelial cell migration assay was set up in Trans well-24 well plates with 8-um pore filters. Briefly, 1×10^5 cells/well after 1-hour serum starvation were seeded in the upper chamber, then incubated with conditioned medium from osteoblasts and control in the lower chambers for a further 3 h. The cells in the upper surface of each filter were removed with cotton swabs. The cells that migrated into the lower surface were fixed with 4% PFA for 30 min and then stained with crystal violet. The cell numbers were quantified by counting a centered microscope field per each filter (5 wells for each condition). Endothelial cell wound healing assays were conducted in 12-well plates precoated with gelatin (Stemcell Technologies). 3×10^5 cells/well were plated overnight and stimulated with a wound in the form of a single linear scratch made with a yellow pipette tip. After gently washing the well twice, cells were cultured in medium with SLIT3 or vehicle. At 6 and 12 hours after injury, cells were stained by 0.5% crystal violet and photographed. The width of the wound area was quantitatively evaluated using ImageJ (see website at rsb.info.uih.gov/ij/download.html). Endothelial cell proliferation assays were conducted in 96-well plates pre-coated with gelatin (Stemcell Technologies). EPOCs (3×10^4 cells/well) were seeded in the medium with a serial dilution of SLIT3 protein or vehicle in plates. At 0, 24, 48 hours after seeding, cells were incubated with 10-fold diluted Alamar Blue solution (Thermo Fisher) and the supernatant was evaluated with a spectrophotometer (Thermo) (5 wells for each condition). Endothelial cell tube formation assay was conducted in 96-well plates pre-coated with Matrigel (BD). After 1 h serum starvation, EPOCs (3×10^4 cells/well) were seeded in conditioned medium dilution or control medium on polymerized Matrigel in plates. Alter 5 hours incubation at 37° C., the number of tube branches each well was observed and quantified by counting four random fields per well with microscopy (5 wells for each condition).

[4] = test system: bone marrow-derived endothelial cells; assay: Flow cytometry of CD31hiEMCNhi endothelial cells in EPOC cultures; assay type: cell-based, mouse; settings: cultures of EPOCs
Method: Femur and tibia were dissected from mutant mice and control groups after removing surrounding connective tissues. The metaphysis region and diaphysis regions of bone was crushed in Hanks Balanced Salt Solution (Life Technologies) containing 10 mM HOPES (pH 7.2) (CellGro) and enzymatically digested with 2.5 mg/mL Collagenase A (Roche) and 1 unit/mL Dispase II (Roche) for 15 minutes at 37° C. under gentle agitation. The resulting cell suspensions were filtered (40 μm), washed using PBS (pH 7.2) containing 0.5% BSA (Fraction V) and 2 mM EDTA. […] After washing, cells were resuspended in PBS (pH 7.2) with 2 mM EDTA and 1 μg/mL 4-6,Diamidino-2-Phenylindole (DAPI) (live/dead exclusion) for analysis on an LSRII flow cytometer system (BD Biosciences) cytometer and analyzed using FlowJo software (TreeStar). […]
Mouse bone marrow derived late-stage endothelial progenitor outgrowth cells (EPOCs) were obtained from BioChain (7030031) and cultured in growth medium (BioChain Z7030035) as described previously (Xie et al. 2014). […] The cell numbers were quantified by counting a centered microscope field per each filter (5 wells for each condition). […] The width of the wound area was quantitatively evaluated using ImageJ (see website at rsb.info.uih.gov/ij/download.html). […]

B1: SLIT3: SLIT3 recombinant protein (R&D); secreted ligand of ROBO receptors (protein, UniProt O75094 34-1523, looked up)
Slit homolog 3 protein: CPTKCTCSAASVDCHGLGLRAVPRGIPRNAERLDLDRNNITRITKMDFAGLKNLRVLHLEDNQVSVIERGAFQDLKQLERLRLNKNKLQVLPELLFQSTPKLTRLDLSENQIQGIPRKAFRGITDVKNLQLDNNHISCIEDGAFRALRDLEILTLNNNNISRILVTSFNHMPKIRTLRLHSNHLYCDCHLAWLSDWLRQRRTVGQFTLCMAPVHLRGFNVADVQKKEYVCPAPHSEPPSCNANSISCPSPCTCSNNIVDCRGKGLMEIPANLPEGIVEIRLEQNSIKAIPAGAFTQYKKLKRIDISKNQISDIAPDAFQGLKSLTSLVLYGNKITEIVKGLFDGLVSLQLLLLNANKINCLRVNTFQDLQNLNLLSLYDNKLQTISKGLFAPLQSIQTLHLAQNPFVCDCHLKWLADYLQDNPIETSGARCSSPRRLANKRISQIKSKKFRCSGSEDYRSRFSSECFMDLVCPEKCRCEGTIVDCSNQKLVRIPSHLPEYVTDLRLNDNEVSVLEATGIFKKLPNLRKINLSNNKIKEVREGAFDGAASVQELMLTGNQLETVHGRVFRGLSGLKTLMLRSNLIGCVSNDTFAGLSSVRLLSLYDNRITTITPGAFTTLVSLSTINLLSNPFNCNCHLAWLGKWLRKRRIVSGNPRCQKPFFLKEIPIQDVAIQDFTCDGNEESSCQLSPRCPEQCTCMETVVRCSNKGLRALPRGMPKDVTELYLEGNHLTAVPRELSALRHLTLIDLSNNSISMLTNYTFSNMSHLSTLILSYNRLRCIPVHAFNGLRSLRVLTLHGNDISSVPEGSFNDLTSLSHLALGTNPLHCDCSLRWLSEWVKAGYKEPGIARCSSPEPMADRLLLTTPTHRFQCKGPVDINIVAKCNACLSSPCKNNGTCTQDPVELYRCACPYSYKGKDCTVPINTCIQNPCQHGGTCHLSDSHKDGFSCSCPLGFEGQRCEINPDDCEDNDCENNATCVDGINNYVCICPPNYTGELCDEVIDHCVPELNLCQHEAKCIPLDKGFSCECVPGYSGKLCETDNDDCVAHKCRHGAQCVDTINGYTCTCPQGFSGPFCEHPPPMVLLQTSPCDQYECQNGAQCIVVQQEPTCRCPPGFAGPRCEKLITVNFVGKDSYVELASAKVRPQANISLQVATDKDNGILLYKGDNDPLALELYQGHVRLVYDSLSSPPTTVYSVETVNDGQFHSVELVTLNQTLNLVVDKGTPKSLGKLQKQPAVGINSPLYLGGIPTSTGLSALRQGTDRPLGGFHGCIHEVRINNELQDFKALPPQSLGVSPGCKSCTVCKHGLCRSVEKDSVVCECRPGWTGPLCDQEARDPCLGHRCHHGKCVATGTSYMCKCAEGYGGDLCDNKNDSANACSAFKCHHGQCHISDQGEPYCLCQPGFSGEHCQQENPCLGQVVREVIRRQKGYASCATASKVPIMECRGGCGPQCCQPTRSKRRKYVFQCTDGSSFVEEVERHLECGCLACS
- osteoblast activation / differentiation (ALP activity) [1]: did not enhance osteoblast activation; also recorded: does not directly regulate osteoblast differentiation or activity
- brain ultrastructure (non-skeletal vasculature): no changes
- migration [2]: enhanced migration
- tube formation (tube branch numbers) [3]: enhanced
- tube formation (tube branch numbers) ([3]; listed as Slit3): increases with increased Slit3
- tube formation capacity in response to ligand after Robo1 knockdown ([3]; EPOCs transduced with Robo1 shRNA): impaired their response
- ability to induce tube formation after shRNA-mediated knockdown of YAP ([3]; EPOCs transduced with YAP shRNA): significantly reduced the ability
- acquisition of CD31hiEMCNhi surface immunophenotype in culture [4]: enhanced the acquisition; also recorded: induces production
